Data taken from patent US20150274840A1 (GENEFRONTIER, published 2015).

Key:
[1] = target: T1, peptide #25 of the human ADAM28s peptide array (FTLENFSKWRGS) (human); test: peptide array, HRP-labeled antibody
T1 construct: 12-mer partial peptide of human ADAM28s, immobilized on an array
T1 peptide: FTLENFSKWRGS
Method: (§1) Specifically, as shown below, a peptide array consisting of peptides having the residue number of 12 amino acid residues with an offset of 3 amino acid residues were prepared for a sequence covering from the protease domain to the C-terminal of human ADAM28s. HRP-labeled anti-human ADAM28s antibody was reacted with the peptide array.

[2] = target: T2, peptide #26 of the human ADAM28s peptide array (ENFSKWRGSVLS) (human); test: peptide array, HRP-labeled antibody
T2 construct: 12-mer partial peptide of human ADAM28s, immobilized on an array
T2 peptide: ENFSKWRGSVLS
Method: as §1

[3] = target: T3, fusion protein of region 399-540 of human ADAM28s added to the C-terminal of MBP (human); test: Western blotting of MBP fusion proteins
T3 chain: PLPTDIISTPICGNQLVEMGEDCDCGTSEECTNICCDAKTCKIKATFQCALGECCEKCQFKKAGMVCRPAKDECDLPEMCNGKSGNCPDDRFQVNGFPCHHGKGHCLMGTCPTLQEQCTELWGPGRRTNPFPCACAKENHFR

[4] = target: T4, fusion protein of region 491-540 of human ADAM28s added to the C-terminal of MBP (human); test: Western blotting of MBP fusion proteins
T4 construct: also called MBP-ADAM28s 491-540
T4 chain: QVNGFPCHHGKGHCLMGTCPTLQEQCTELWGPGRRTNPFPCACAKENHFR

B1: anti-human ADAM28 human antibody 211-12 (antibody, V domains shown)
VH: QVQLVQSGAEVKKPGESLKISCKGSGYSFTSYWIAWVRQMPGKGLEWMGIIYPSDSYTRYSPSFQGQVTISADKSISTAYLQWSSLKASDTAMYYCARWSWMGRGFDNWGQGTLVTVSS
VL: DIQMTQSPSSLSASVGDRVTITCRASQDISSYLNWYQQKPGKAPKLLIYGVSTLQSGVPSRFSGSGSGTDFTLTISSLQPEDFATYYCLQYDSLPSTFGQGTKVEIKR
notes: Clone from the HuCAL GOLD phage library, first made as Fab, then converted to IgG (heavy chain constant region IgG1) in HEK293T cells; It was HRP-labeled in the peptide array
B1: binds [1]; binds [2].

B2: anti-human ADAM28 human antibody 211-14 (antibody, V domains shown)
VH: QVQLQQSGPGLVKPSQTLSLTCAISGDSVSSNTAAWGWIRQSPGRGLEWLGVIYYRSKWYNDYAVSVKSRITINPDTSKNQFSLQLNSVTPEDTAVYYCARYKESIPEYGFDFWGQGTLVTVSS
VL: DIVMTQSPLSLPVTPGEPASISCRSSQSLLYSNGYIYLNWYLQKPGQSPQLLIYLGSNRASGVPDRFSGSGSGTDFTLKISRVEAEDVGVYYCFQYGGSPLTFGQGTKVEIKR
notes: Clone from the HuCAL GOLD phage library, first made as Fab, then converted to IgG (heavy chain constant region IgG1)
B2: binds [3]; binds [4].
